These results are taken from patent US20100098709A1 (AstraZeneca / MedImmune, published 2010).

Assay [1] deals with T1, biotinylated anti-FLAG monoclonal antibody (Sigma F9291).
T1 construct: Control coat of the phage ELISA plates (streptavidin plate treated with the anti-FLAG antibody, then MPBS only); also called anti FLAG antibody treated plates alone
Kind of assay: phage ELISA, anti-FLAG treated plate alone. A general note: An ELISA detects its analyte on a solid surface through an enzyme-linked reagent.

Assay [2] deals with T2, HIS FLAG tagged human IL-6 (human, UniProt P05231 30-212).
T2 construct: also called HIS FLAG IL-6; FLAG-IL-6
Description: phage ELISA.

Assay [3] has as its target T3, FLAG HIS tagged soluble IL-6Ra (human, UniProt P08887 20-358, limits assumed).
T3 construct: the key was followed; also called HIS FLAG sIL-6R; FLAG-sIL-6R
T3 sequence: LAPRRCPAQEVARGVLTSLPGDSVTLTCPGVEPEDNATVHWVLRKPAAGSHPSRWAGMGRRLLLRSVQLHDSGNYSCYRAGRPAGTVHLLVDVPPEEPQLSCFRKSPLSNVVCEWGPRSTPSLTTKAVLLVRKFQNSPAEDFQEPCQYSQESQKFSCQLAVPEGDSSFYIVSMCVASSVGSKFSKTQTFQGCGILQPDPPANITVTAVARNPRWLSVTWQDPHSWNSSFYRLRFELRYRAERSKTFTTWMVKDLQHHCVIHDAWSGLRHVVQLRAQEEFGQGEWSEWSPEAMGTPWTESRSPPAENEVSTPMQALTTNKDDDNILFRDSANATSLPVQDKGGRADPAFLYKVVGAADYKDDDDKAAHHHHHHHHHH
Description: phage ELISA.

For assay [4], the target named is T2, HIS FLAG tagged human IL-6. Description: phage ELISA, antigen on anti-FLAG plate.
The target in assay [5] is T3, FLAG HIS tagged soluble IL-6Ra. Kind of assay: phage ELISA, antigen on anti-FLAG plate.
Assay [6] deals with T4, FLAG HIS tagged Hyper IL-6.
T4 construct: also called HIS FLAG Hyper IL-6
Description: phage ELISA, antigen on anti-FLAG plate.

In assay [7] the target is T5, Complex 1: HIS FLAG IL-6/sIL-6R (human, UniProt P05231 30-212; P08887 20-358, limits assumed).
T5 construct: Non-covalent complex made by pre-incubating the two proteins; The untagged sIL-6R was bought; also called IL-6/sIL-6R complex consisting of FLAG tagged ligand and untagged receptor
Kind of assay: phage ELISA, antigen on anti-FLAG plate.

Assay [8] deals with T6, Complex 2: IL-6/HIS FLAG sIL-6R (human, UniProt P05231 30-212; P08887 20-358, limits assumed).
T6 construct: Non-covalent complex made by pre-incubating the two proteins; Untagged IL-6 was bought; also called IL-6/sIL-6R complex consisting of untagged ligand and FLAG tagged receptor
Kind of assay: phage ELISA, antigen on anti-FLAG plate.

B1: Antibody 5 scFv (scFv, V domains shown)
VH: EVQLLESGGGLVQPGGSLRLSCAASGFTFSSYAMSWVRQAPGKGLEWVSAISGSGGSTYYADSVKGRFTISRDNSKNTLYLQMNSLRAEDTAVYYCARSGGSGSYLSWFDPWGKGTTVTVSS
VL: QSVLTQPPSVSGAPGQRVTISCTGSSSNIGAGYDVHWYQQLPGTAPKLLIYGNSNRPSGVPDRFSGSKSGTSASLAITGLQAEDEADYYCQSYDSSLSGWVFGGGTKVTVLG
notes: also called Ab 5
For the molecule B1, the “Absorbance (450 nM)” value in assay [1] worked out at 0.062; in assay [4] it was 0.065; in assay [5], 0.061; in assay [6] it was 0.833; in assay [7], 0.331; in assay [8] it was 0.747. Also, the binding result in assay [2] and in assay [3] was “no binding” each time.
